Consider four molecules from US8129345B2, “MUC1-IκB kinase complexes and their activities” (Dana-Farber Cancer Institute, Inc., priority 2006, dated 2012).

For test [1], the target named is T1, IKKβ (Homo sapiens, UniProt O14920).
T1 sequence (O14920 1-756): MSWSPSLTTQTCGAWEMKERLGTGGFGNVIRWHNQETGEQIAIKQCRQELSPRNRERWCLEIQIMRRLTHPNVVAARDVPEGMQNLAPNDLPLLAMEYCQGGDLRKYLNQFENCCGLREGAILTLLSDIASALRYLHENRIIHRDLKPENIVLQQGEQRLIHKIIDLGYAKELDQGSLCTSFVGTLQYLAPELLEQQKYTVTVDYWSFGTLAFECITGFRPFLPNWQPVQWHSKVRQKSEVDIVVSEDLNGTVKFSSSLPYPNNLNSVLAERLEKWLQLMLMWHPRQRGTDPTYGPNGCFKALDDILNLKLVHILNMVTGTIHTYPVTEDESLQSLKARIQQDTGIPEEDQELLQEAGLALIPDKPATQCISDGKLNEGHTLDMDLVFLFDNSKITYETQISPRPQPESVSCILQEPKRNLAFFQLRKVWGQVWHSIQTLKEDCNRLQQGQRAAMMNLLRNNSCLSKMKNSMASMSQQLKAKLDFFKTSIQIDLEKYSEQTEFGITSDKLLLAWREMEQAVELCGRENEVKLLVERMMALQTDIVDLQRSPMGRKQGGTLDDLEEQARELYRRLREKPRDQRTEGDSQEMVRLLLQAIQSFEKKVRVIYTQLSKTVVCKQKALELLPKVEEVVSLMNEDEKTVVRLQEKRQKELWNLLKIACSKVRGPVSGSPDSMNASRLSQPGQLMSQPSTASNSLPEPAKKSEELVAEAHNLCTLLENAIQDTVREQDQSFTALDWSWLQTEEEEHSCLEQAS
The test is described as follows: In vitro GST pull-down binding to IKKβ. The settings on record: GST pull-down with purified proteins, immunoblot. The procedure:
FIG. 4B is a pair of photographs of immunoblots. Recombinantly expressed, purified GST- and GST-IKKβ proteins bound to glutathione-agarose beads were incubated with purified MUC1-CD protein. The precipitates were immunoblotted (IB) with anti-MUC1-C antibodies. Input of the GST and GST-IKKβ proteins was assessed by Coomassie blue staining. The molecular weights of proteins (as indicated on the left of the photographs) are expressed as kilodaltons (kDa).
FIG. 4C (top panel) is a schematic diagram of the amino acid sequence of (i) the MUC1-cytoplasmic domain (MUC1-CD) [amino acids 1-72; SEQ ID NO:2]; (ii) the MUC1-CD fragment [amino acids 1-45; SEQ ID NO:3]; and (iii) the MUC-CD fragment [amino acids 46-72; SEQ ID NO:4]. FIG. 4C (bottom panel) is a photograph of an immunoblot and a photograph of a Coomassie blue-stained electrophoretic gel. GST- and the indicated GST-MUC1-CD fusion proteins bound to glutathione beads were incubated with purified IKKβ. The precipitates were immunoblotted with anti-IKKβ. Input of the GST and GST-MUC1-CD fusion proteins was assessed by Coomassie blue staining. The molecular weights of proteins (as indicated on the left of the photographs) are expressed as kilodaltons (kDa).
FIG. 11A is a pair of photographs of an immunoblot and Coomassie-blue stained gel. GST and the indicated GST-MUC1-CD fusion proteins (MUC1-CD and MUC1-CD(mSRM)) bound to glutathione beads were incubated with IKKβ. The precipitates were immunoblotted (IB) with an anti-IKKβ antibody. Commassie blue staining of the gel was performed to confirm that equal amounts of GST- and GST-MUC1-CD proteins were used in the experiment. The molecular weights of proteins (as indicated on the left of the photographs) are expressed as kilodaltons (kDa).
(§1) In vitro binding assays. Purified GST-MUC1-CD (glutathione s-transferase fused to the MUC1-CD polypeptide) was cleaved with thrombin to remove the GST moiety. […] Adsorbates to glutathione-conjugated beads were analyzed by immunoblotting.
Background: In western blotting, separated proteins are transferred to a membrane and probed.

Test [2] addresses IKKγ (Homo sapiens, UniProt Q9Y6K9). The experiment in a line: In vitro GST pull-down binding to IKKγ. The settings on record: GST pull-down with purified proteins, immunoblot. As for the experimental part: FIG. 5B is a pair of photographs of immunoblots showing an interaction between MUC1-CD and IKKγ. GST- and GST-IKKγ bound to glutathione beads were incubated with purified MUC1-CD. The precipitates were immunoblotted (IB) with anti-MUC1-C antibodies. Commassie blue staining of the gel was performed to confirm that equal amounts of GST- and GST-IKKγ were used in the experiment. The molecular weights of proteins (as indicated on the left of the photographs) are expressed as kilodaltons (kDa).
FIG. 5C is a pair of photographs of immunoblots. GST- and the indicated GST-MUC1-CD fusion proteins or fragments bound to glutathione beads were incubated with purified IKKγ. The precipitates were immunoblotted (IB) with anti-IKKγ antibody. Commassie blue staining of the gel was performed to confirm that equal amounts of GST- and GST-MUC1 proteins were used in the experiment. The molecular weights of proteins (as indicated on the left of the photographs) are expressed as kilodaltons (kDa).
FIG. 5D is a pair of photographs of immunoblots. GST and the indicated GST-IKKγ fusion proteins bound to glutathione beads were incubated with MUC1-CD. The precipitates were immunoblotted (IB) with anti-MUC1-C antibody. Commassie blue staining of the gel was performed to confirm that equal amounts of GST- and GST-IKKγ proteins were used in the experiment. The molecular weights of proteins (as indicated on the left of the photographs) are expressed as kilodaltons (kDa).
FIG. 11B is a pair of photographs of an immunoblot and Coomassie blue stained gel. GST and the indicated GST-MUC1-CD fusion proteins (MUC1-CD and MUC1-CD(mSRM)) bound to glutathione beads were incubated with IKKγ. The precipitates were immunoblotted (IB) with an anti-IKKγ antibody. Commassie blue staining of the gel was performed to confirm that equal amounts of GST- and GST-MUC1-CD proteins were used in the experiment. The molecular weights of proteins (as indicated on the left of the photographs) are expressed as kilodaltons (kDa).
(§2) In vitro binding assays. Purified GST-MUC1-CD (glutathione s-transferase fused to the MUC1-CD polypeptide) was cleaved with thrombin to remove the GST moiety. GST, GST-IKKβ (DiDonato et al. (1997) Nature 388:548-554), GST-IKKβ (1-458), GST-IKKβ (458-756), GST-IKKγ (Prajapati et al. (2002) J. Biol. Chem. 277:24331-24339), GST-IKKγ (1-196) or GST-IKKγ (197-419) were then incubated with the MUC1-CD for 1 hour at 25° C. In other experiments, GST, GST-MUC1-CD, GST-MUC1-CD(1-45) or GST-MUC1-CD(46-72) were incubated with purified IKKβ or IKKγ. Adsorbates to glutathione-conjugated beads were analyzed by immunoblotting.

The target of test [3] is IKKβ-IKKγ complexes (Homo sapiens, UniProt O14920+Q9Y6K9). The test is described as follows: In vitro association of IKKβ with GST-IKKγ in absence and presence of MUC1-CD proteins. It counts as binding. The settings on record: purified IKKβ and GST-IKKγ, with or without added MUC1 protein. As for the experimental part: FIG. 7C is a series of photographs of immunoblots. GST- or GST-IKKγ bound to glutathione beads was incubated with IKKβ in the absence and presence of MUC1-CD protein. The precipitates were immunoblotted (IB) with anti-IKKβ (upper panel). Input amounts of the various proteins were assessed by immunoblotting with the indicated antibodies (lower 3 panels). The molecular weights of proteins (as indicated on the left of the photographs) are expressed as kilodaltons (kDa).
FIG. 12 is a series of photographs of immunoblots. GST, and GST-IKKγ fusion proteins bound to glutathione beads were incubated with MUC1-CD, MUC1-CD(mSRM), or IKKβ proteins as indicated. The GST-pull down precipitates were immunoblotted (IB) with antibodies specific for IKKγ (top panel), IKKβ (middle panel), or MUC1 (bottom panel) as indicated. The molecular weights of proteins (as indicated on the left of the photographs) are expressed as kilodaltons (kDa).
as §1

The target in test [4] is IKKβ (Homo sapiens, UniProt O14920). The experiment in a line: In vitro incubation of IKKβ and IKKγ with ATP, phospho-IKKβ-Ser-181 immunoblot. It counts as biochemical. The settings on record: MUC1 protein added to the reaction. As for the experimental part: FIG. 13 is a series of photographs of immunoblots. GST, and GST-IKKγ fusion proteins bound to glutathione beads were incubated with MUC1-CD, MUC1-CD(mSRM), or IKKβ proteins as indicated. The GST-pull down precipitates were immunoblotted (IB) with antibodies specific for (from top to bottom) phosphor-IKKβ-Ser-181 (first panel), IKKγ (second panel), IKKβ (third panel), or MUC1 (fourth panel) as indicated. The molecular weights of proteins (as indicated on the left of the photographs) are expressed as kilodaltons (kDa).
Target sequence in this assay (Q9Y6K9 whole entry partner, one chain of several, the tested form may be a part): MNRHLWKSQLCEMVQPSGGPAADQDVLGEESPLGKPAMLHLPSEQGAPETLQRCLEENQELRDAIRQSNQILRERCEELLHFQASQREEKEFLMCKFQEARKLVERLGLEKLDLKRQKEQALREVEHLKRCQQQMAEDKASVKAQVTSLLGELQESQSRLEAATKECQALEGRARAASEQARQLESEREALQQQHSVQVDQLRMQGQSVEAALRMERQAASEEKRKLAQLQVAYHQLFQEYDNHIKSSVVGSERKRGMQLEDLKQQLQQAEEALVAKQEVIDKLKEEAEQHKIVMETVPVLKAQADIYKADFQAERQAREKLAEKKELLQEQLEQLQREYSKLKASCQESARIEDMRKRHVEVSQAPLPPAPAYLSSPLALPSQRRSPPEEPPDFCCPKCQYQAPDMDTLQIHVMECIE

The target of test [5] is T2, MUC1-CD (Homo sapiens, UniProt P15941).
T2 construct: the MUC1-cytoplasmic domain (MUC1-CD) [amino acids 1-72; GST (N, cleaved yes); made in house
T2 sequence (P15941 1184-1255): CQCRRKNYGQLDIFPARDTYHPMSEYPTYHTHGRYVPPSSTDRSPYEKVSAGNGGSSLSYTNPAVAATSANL
The test is described as follows: In vitro GST pull-down of GST-IKKβ fragments with MUC1-CD. It counts as binding. The settings on record: GST-IKKβ (1-458) and GST-IKKβ (458-756) incubated with MUC1-CD. The procedure:
FIG. 4D is a pair of photographs of immunoblots. GST and the indicated GST-IKKβ fusion proteins bound to glutathione beads were incubated with MUC1-CD. The precipitates were immunoblotted with anti-MUC1-C antibody. The molecular weights of proteins (as indicated on the left of the photographs) are expressed as kilodaltons (kDa).
as §2

“Also recorded” adds a separate entry of the source.

Chain of IKKγ (Q9Y6K9 whole entry, the tested form may be a part): as the sequence (Q9Y6K9 whole entry partner, one chain of several, the tested form may be a part) above
Chain of IKKβ-IKKγ complexes (Q9Y6K9 whole entry, one chain of several, the tested form may be a part): as the sequence (Q9Y6K9 whole entry partner, one chain of several, the tested form may be a part) above

For the molecule “MUC1-CD(1-45): fragment consisting of amino acids 1-45 (SEQ ID NO:3) of the human MUC1 CD (CQCRRKNYGQLDIFPARDTYHPMSEYPTYHTHGRYVPPSSTDRSP; listed as Homo sapiens)”, in test [1], the “binding to IKKβ” value is given as “confers the ability to bind to IKKβ; also recorded: binds to IKKβ”. In test [2], the “binding to IKKγ” value is “not”.

Consider “MUC1-CD(46-72): fragment consisting of amino acids 46-72 (SEQ ID NO:4) of the human MUC1 CD (YEKVSAGNGGSSLSYTNPAVAATSANL; listed as Homo sapiens)”, for which the “binding to IKKγ” value in test [2] is “binds to IKKγ”.

In the case of “MUC1-CD(mSRM): MUC1-CD with serine-rich motif SAGNGGSSLS mutated to AAGNGGAAAA (SEQ ID NO:14) (Mutation of the Serine rich motif from human MUC1 CD)”, the “binding to IKKβ” value in test [1] is “no effect”. Further, the “binding to IKKγ” value in test [2] was “attenuated binding to IKKγ”. Moreover, in test [3], the “interaction between IKKβ and IKKγ” value was “substantially less effective”. Moreover, in test [4], the “extent of IKKβ phosphorylation on Ser-181” value is “attenuated”.

B1: IKKβ (1-458): fragment of amino acids 1-458 (SEQ ID NO:7) of human IKKβ (protein, listed as Homo sapiens)
chain: MSWSPSLTTQTCGAWEMKERLGTGGFGNVIRWHNQETGEQIAIKQCRQELSPRNRERWCLEIQIMRRLTHPNVVAARDVPEGMXNLAPNDLPLLAMEYCQGGDLRKYLNQFENCCGLREGAILTLLSDIASALRYLHENRIIHRDLKPENIVLQQGEQRLIHKIIDLGYAKELDQGSLCTSFVGTLQYLAPELLEQQKYTVTVDYWSFGTLAFECITGFRPFLPNWQPVQWHSKVRQKSEVDIVVSEDLNGTVKFSSSLPYPNNLNSVLAERLEKWLQLMLMWHPRQRGTDPTYGPNGCFKALDDILNLKLVHILNMVTGTIHTYPVTEDESLQSLKARIQQDTGIPEEDQELLQEAGLALIPDKPATQCISDGKLNEGHTLDMDLVFLFDNSKITYETQISPRPQPESVSCILQEPKRNLAFFQLRKVWGQVWHSIQTLKEDCNRLQQGQRAAMMNL
modifications: not fully specified; X: residue not identified in the source
On to B1, for which the “binding of MUC1 to IKKβ fragments” value in test [5] is “MUC1 binds directly with the IKKβ N-terminal region”.
